# Experimental data as given in patent US20100196390A1 (RINAT NEUROSCIENCE, published 2010).
# Changes are numbered by the printed parent chain.
# B1: 11-C7 (Fab, V domains shown)
# VH: QVQLVQSGAEVKKPGASVKVSCKASGYTFTNYDIIWVRQAPGQGLEWMGYINPYNRRIEYNEKFKGRVTMTRDTSTSTVYMELSSLRSEDTAVYYCARLLKYRRFRYYAIDYWGQGTTVTVSS
# VL: DIQMTQSPSSLSASVGDRVTITCRASENVYSHLAWYQQKPGKAPKLLIYAASNLQSGVPSRFSGSGSGTDFTFTISSLQPEDIATYYCQHFWGSPFTFGQGTKLEIK
# notes: Fab
# B2: 12-C9 (Fab, V domains shown)
# VH: B1 VH with R56G, I58T
# VL: B1 VL with E27K, H32N, H90Q, G93Y
# notes: Fab
# B3: 12-E5 (Fab, V domains shown)
# VH: B1 VH with R56G, I58R
# VL: B1 VL with N28P, H32N
# notes: Fab
# B4: 13-C5 (Fab, V domains shown)
# VH: B1 VH with R56G, I58R
# VL: B1 VL with N28P, H32N, F71Y
# notes: Fab
# B5: 11-G10 (Fab, V domains shown)
# VH: B1 VH with R56G, I58R
# VL: B1 VL with H32N
# notes: Fab
# B6: T1-HuC1 (Fab, V domains shown)
# VH: B1 VH with R56D, R57G, I58T, E59K, R106S
# VL: B1 VL with H32N, Q55A, S56D, G93Y
# notes: Fab
# B7: 13-C7 (Fab, V domains shown)
# VH: B1 VH with R56G, I58R
# VL: B1 VL with N28P, H32N, F71Y, G93Y
# notes: Fab
# B8: 12-E11 (Fab, V domains shown)
# VH: B1 VH with R56G, I58R
# VL: B1 VL with N28P, S31N, H32N, F71Y, G93Y
# notes: Fab
# B9: 16-A10 (Fab, V domains shown)
# VH: B1 VH with R56D, R57G, I58T, E59K
# VL: B1 VL with A25T, H32N, G93Y, F96W
# notes: Fab
# B10: 13-C11 (Fab, V domains shown)
# VH: B1 VH with R56G, I58R
# VL: B1 VL with F71Y
# notes: Fab
# B11: 16-H4 (Fab, V domains shown)
# VH: B1 VH with R56D, R57G, I58T, E59K
# VL: B1 VL with A25T, N28S, H32N, G93A
# notes: Fab
# B12: 16-E4 (Fab, V domains shown)
# VH: B1 VH with R56D, R57G, I58T, E59K
# VL: B1 VL with H32N, G93Y, F96W
# notes: Fab
# B13: 16-C3 (Fab, V domains shown)
# VH: B1 VH with R56D, R57G, I58T, E59K
# VL: B1 VL with H32N, H90Q, G93Y
# notes: Fab
# B14: 12-D8 (Fab, V domains shown)
# VH: B1 VH with R56G, I58R
# VL: B1 VL with H32N, L33T, F71Y
# notes: Fab
# B15: A6-11 (Fab, V domains shown)
# VH: B1 VH with I58T
# VL: B1 VL with R24H, H32N, F71Y
# notes: Fab
# B16: 16-B7 (Fab, V domains shown)
# VH: B1 VH with R56D, R57G, I58T, E59K
# VL: B1 VL with H32N, Q55A, S56D, G93A
# notes: Fab
# B17: 13-B3 (Fab, V domains shown)
# VH: B1 VH with R56G, I58R
# VL: B1 VL with S31N, H32N, F71Y
# notes: Fab
# B18: 13-B4 (Fab, V domains shown)
# VH: B1 VH with R56D, R57G, I58R, E59K, Y60E
# VL: B1 VL with S31M, H32N, F71Y, G93Y
# notes: Fab
# B19: 11-D8 (Fab, V domains shown)
# VH: B1 VH with R56G, I58R
# VL: B1 VL with E27T, H32N
# notes: Fab
# B20: 14-B1 (Fab, V domains shown)
# VH: B1 VH with R56D, R57G, I58R, E59K, Y60E
# VL: B1 VL with N28P, H32N, F71Y
# notes: Fab
# B21: 11-F9 (Fab, V domains shown)
# VH: B1 VH with R56D, R57G, I58R, E59K, Y60E
# VL: B1 VL with S31R, H32N, G93Y
# notes: Fab
# B22: 12-E9 (Fab, V domains shown)
# VH: B1 VH with R56D, R57G, I58T, E59K, G66Y
# VL: B1 VL with N28S, S31N, H32N
# notes: Fab
# B23: 15-G6 (Fab, V domains shown)
# VH: B1 VH with R56D, R57G, I58T, E59K, R106K
# VL: B1 VL with A25T, H32N, H90Q, G93Y
# notes: Fab
# B24: 16-C1 (Fab, V domains shown)
# VH: B1 VH with R56D, R57G, I58T, E59K, R106K
# VL: B1 VL with H32N, G93Y, F96W
# notes: Fab
# B25: 11-G5 (Fab, V domains shown)
# VH: B1 VH with R56G, I58R
# VL: B1 VL with S31Y, H32N, G93Y
# notes: Fab
# B26: 16-D6 (Fab, V domains shown)
# VH: B1 VH with R56D, R57G, I58T, E59K, R106K
# VL: B1 VL with H32N, Q55A, S56D, H90D, G93Y
# notes: Fab
# B27: 15-H1 (Fab, V domains shown)
# VH: B1 VH with R56D, R57G, I58T, E59K, R103A, R104C, Y107E, Y108E
# VL: B1 VL with H32N, G93E
# notes: Fab
# B28: 13-C12 (Fab, V domains shown)
# VH: B1 VH with R56G, I58R
# VL: B1 VL with S31R, H32N, F71Y, W92V, G93Y
# notes: Fab
# B29: 13-C6 (Fab, V domains shown)
# VH: B1 VH with R56G, I58R
# VL: B1 VL with N28P, H32N, L33V
# notes: Fab
# B30: 14-A6 (Fab, V domains shown)
# VH: B1 VH with I58R
# VL: B1 VL with R24H, H32N
# notes: Fab
# B31: 12-A8 (Fab, V domains shown)
# VH: B1 VH with R56D, R57G, I58R, E59K, Y60E
# VL: B1 VL with H32N
# notes: Fab
# B32: 13-B2 (Fab, V domains shown)
# VH: B1 VH with R56G, I58R
# VL: B1 VL with E27K, N28P, H32N, F71Y
# notes: Fab
# B33: 13-D5 (Fab, V domains shown)
# VH: B1 VH with R56G, I58R
# VL: B1 VL with Y30T, H32N, F71Y
# notes: Fab
# B34: 12-C8 (Fab, V domains shown)
# VH: B1 VH with R56G, I58R
# VL: B1 VL with E27K, H32N
# notes: Fab
# B35: 13-F12 (Fab, V domains shown)
# VH: B1 VH with R56G, I58R
# VL: B1 VL with S31R, H32N, F71Y
# notes: Fab
# B36: 13-H3 (Fab, V domains shown)
# VH: B1 VH with R56D, R57G, I58R, E59K, Y60E
# VL: B1 VL with H32N, F71Y
# notes: Fab
# B37: A6-10 (Fab, V domains shown)
# VH: B1 VH with R57G, I58R
# VL: B1 VL with R24H, H32N, F71Y
# notes: Fab
# B38: 11-G2 (Fab, V domains shown)
# VH: B1 VH with R56D, R57G, I58R, E59K, Y60E
# VL: B1 VL with H32N, G93D
# notes: Fab
# B39: 11-D7 (Fab, V domains shown)
# VH: B1 VH with R56G, I58R
# VL: B1 VL with S31R, H32N
# notes: Fab
# B40: 12-H6 (Fab, V domains shown)
# VH: B1 VH with I58R
# VL: B1 VL with S31R, H32N, F71Y
# notes: Fab
# B41: 12-B5 (Fab, V domains shown)
# VH: B1 VH
# VL: B1 VL with F71Y
# notes: Fab
# B42: 16-G9 (Fab, V domains shown)
# VH: B1 VH with R56D, R57G, I58T, E59K
# VL: B1 VL with H32N, G93Y, T97G
# notes: Fab
# B43: 13-H6 (Fab, V domains shown)
# VH: B1 VH with R56D, R57G, I58R, E59K, Y60E
# VL: B1 VL with F71Y, W92V, G93Y
# notes: Fab
# B44: 16-A6 (Fab, V domains shown)
# VH: B1 VH with R56D, R57G, I58T, E59K
# VL: B1 VL with A25T, H32N, Q55A, S56D, G93A
# notes: Fab
# B45: 13-A12 (Fab, V domains shown)
# VH: B1 VH with R56D, R57G, I58R, E59K, Y60E
# VL: B1 VL with S31R, H32N, F71Y, G93Y
# notes: Fab
# B46: A6-9 (Fab, V domains shown)
# VH: B1 VH with R56D, I58R, E59R
# VL: B1 VL with R24H, H32N, F71Y
# notes: Fab
# B47: 16-F4 (Fab, V domains shown)
# VH: B1 VH with R56D, R57G, I58T, E59K
# VL: B1 VL with H32N, Q55A, S56D, G93T
# notes: Fab
# Target: TrkB (Homo sapiens (Human), UniProt Q16620 32-430)
# Test: koff of Fab at 25 C; T1/2=Log2/koff
# In short: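 Monovalent Fab fragments were tested at 25° C by surface plasmon resonance on a Biacore instrument, against TrkB extracellular-domain monomer amine-coupled to the chip at low capacity. Fabs were injected low to high as a 3-fold serial dilution from 100 nM for 84 sec, with a 10 minute dissociation after the top sample. The dissociation half-life was calculated from koff, which was fitted to a Langmuir binding model in BIAevaluation. The formula used was T1/2 = Log 2/koff.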
# Chain of TrkB (Q16620 32-430 limits assumed): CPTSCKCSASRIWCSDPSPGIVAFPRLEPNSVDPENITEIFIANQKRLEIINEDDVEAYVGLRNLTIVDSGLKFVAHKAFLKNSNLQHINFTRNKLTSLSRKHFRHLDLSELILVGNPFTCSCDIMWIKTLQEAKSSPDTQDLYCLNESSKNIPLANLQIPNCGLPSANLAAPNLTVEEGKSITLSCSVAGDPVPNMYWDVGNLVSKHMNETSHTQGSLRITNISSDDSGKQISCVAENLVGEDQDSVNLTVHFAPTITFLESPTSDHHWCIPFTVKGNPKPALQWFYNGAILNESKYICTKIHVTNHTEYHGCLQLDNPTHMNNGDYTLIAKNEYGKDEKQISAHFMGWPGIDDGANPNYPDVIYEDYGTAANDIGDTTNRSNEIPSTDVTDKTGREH
row,Binder,T1/2 [min]
1,B1,4.9
2,B2,0.8
3,B3,7.5
4,B4,13
5,B5,3
6,B6,1.7
7,B7,13
8,B8,11
9,B9,6
10,B10,13
11,B11,6
12,B12,7
13,B13,1
14,B14,10
15,B15,9.9
16,B16,5
17,B17,13
18,B18,13
19,B19,2.5
20,B20,13
21,B21,6.2
22,B22,3.5
23,B23,1.8
24,B24,6

row,Binder,T1/2 [min]
1,B25,5.9
2,B26,1
3,B27,2.1
4,B28,13
5,B29,4.8
6,B30,2.8
7,B31,3.3
8,B32,13
9,B33,13
10,B34,8
11,B35,13
12,B36,13
13,B37,4
14,B38,1.5
15,B39,4.1
16,B40,12
17,B41,10
18,B42,4
19,B43,13
20,B44,1
21,B45,13
22,B46,11.8
23,B47,5
